In test [1] the target is BMP2 (Homo sapiens) (UniProt P12643). Briefly: SPR; BIAcore 2000; BMP2 immobilised, CV2 proteins perfused; apparent KD from koff/kon; 6 to 9 analyte concentrations, at least three independent experiments. (SPR reads the build-up and loss of mass on a sensor chip optically.)
Test [2] has as its target Chordin, full-length, mouse (mouse) (UniProt Q9Z0E2). Briefly: SPR; BIAcore 2000; Chordin immobilised, CV2 proteins perfused; apparent KD from koff/kon; 6 to 9 analyte concentrations, at least three independent experiments.
The target of test [3] is VWC2 domain of Chordin, mouse (mouse). The test can be described thus: SPR; BIAcore 2000; VWC2 domain of Chordin immobilised, CV2 proteins perfused; apparent KD from koff/kon; 6 to 9 analyte concentrations, at least three independent experiments.
Test [4] concerns the target BMP2 (Homo sapiens) (UniProt P12643). Particulars: cited from earlier work.
Test [5] deals with Crossveinless-2 (CV2), full-length, zebrafish (zebrafish). The test can be described thus: SPR; BIAcore 2000; CV2 immobilised on the chip (legend of Figure 1E: CV2-N), Chordin (50-600 nM) or Chordin VWC2 (10-120 nM) in solution; apparent KD.

Read-outs that look alike come from different tables or passages of the source.

BMP2 (Homo sapiens), sequence (P12643 283-396): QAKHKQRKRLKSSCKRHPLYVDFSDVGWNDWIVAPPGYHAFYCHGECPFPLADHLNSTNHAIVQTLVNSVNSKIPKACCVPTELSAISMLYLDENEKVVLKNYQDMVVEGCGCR
Chordin, full-length, mouse (mouse), sequence (Q9Z0E2 27-948): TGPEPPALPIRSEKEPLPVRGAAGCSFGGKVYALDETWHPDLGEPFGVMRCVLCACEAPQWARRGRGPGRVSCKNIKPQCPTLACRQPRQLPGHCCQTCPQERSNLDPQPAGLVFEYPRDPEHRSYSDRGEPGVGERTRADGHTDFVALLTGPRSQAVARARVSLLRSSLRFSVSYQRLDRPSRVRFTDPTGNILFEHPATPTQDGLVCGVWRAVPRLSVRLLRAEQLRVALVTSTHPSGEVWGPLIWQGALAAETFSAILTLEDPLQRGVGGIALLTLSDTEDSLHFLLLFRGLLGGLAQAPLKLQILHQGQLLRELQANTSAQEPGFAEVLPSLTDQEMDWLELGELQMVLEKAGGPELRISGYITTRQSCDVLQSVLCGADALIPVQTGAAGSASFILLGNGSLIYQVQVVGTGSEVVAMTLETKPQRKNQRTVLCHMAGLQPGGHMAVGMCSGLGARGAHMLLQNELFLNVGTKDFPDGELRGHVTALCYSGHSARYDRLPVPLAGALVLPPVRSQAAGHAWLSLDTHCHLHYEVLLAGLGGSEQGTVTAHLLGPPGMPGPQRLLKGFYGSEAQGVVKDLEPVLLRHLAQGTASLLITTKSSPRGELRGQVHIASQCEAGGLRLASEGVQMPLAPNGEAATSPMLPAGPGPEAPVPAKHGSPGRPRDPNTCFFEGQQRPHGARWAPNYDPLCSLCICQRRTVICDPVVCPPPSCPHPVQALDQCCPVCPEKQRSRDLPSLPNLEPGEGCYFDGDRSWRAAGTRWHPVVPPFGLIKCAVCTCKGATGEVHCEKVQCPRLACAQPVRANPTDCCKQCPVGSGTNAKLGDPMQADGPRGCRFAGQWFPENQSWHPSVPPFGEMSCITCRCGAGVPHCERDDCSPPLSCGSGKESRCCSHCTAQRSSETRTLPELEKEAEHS
Chordin, sequence (Q9H2X0 27-955): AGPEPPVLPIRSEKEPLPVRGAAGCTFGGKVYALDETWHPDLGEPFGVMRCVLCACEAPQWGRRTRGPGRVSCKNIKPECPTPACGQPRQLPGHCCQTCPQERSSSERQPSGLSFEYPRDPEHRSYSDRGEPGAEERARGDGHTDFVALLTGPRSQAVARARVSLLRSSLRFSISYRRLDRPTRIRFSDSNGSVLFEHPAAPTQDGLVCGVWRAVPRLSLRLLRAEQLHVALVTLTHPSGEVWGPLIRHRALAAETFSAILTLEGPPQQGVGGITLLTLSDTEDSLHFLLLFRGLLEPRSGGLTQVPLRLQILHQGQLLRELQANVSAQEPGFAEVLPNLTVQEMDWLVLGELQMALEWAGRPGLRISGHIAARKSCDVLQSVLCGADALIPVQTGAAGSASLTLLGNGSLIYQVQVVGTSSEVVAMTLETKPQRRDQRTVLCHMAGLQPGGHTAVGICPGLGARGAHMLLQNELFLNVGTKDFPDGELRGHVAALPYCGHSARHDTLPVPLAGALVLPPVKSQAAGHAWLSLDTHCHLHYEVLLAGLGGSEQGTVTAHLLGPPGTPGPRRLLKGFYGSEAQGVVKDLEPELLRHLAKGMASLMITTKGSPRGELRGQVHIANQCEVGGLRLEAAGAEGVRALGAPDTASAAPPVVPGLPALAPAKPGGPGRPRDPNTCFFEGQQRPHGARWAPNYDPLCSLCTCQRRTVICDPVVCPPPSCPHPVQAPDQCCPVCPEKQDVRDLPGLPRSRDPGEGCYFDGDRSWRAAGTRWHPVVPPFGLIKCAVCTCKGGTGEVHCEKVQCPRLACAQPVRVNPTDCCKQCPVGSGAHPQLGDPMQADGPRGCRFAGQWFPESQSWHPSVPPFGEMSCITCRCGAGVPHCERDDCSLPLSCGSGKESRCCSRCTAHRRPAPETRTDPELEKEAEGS

On to CV2 T5P/I21R (natural protein), for which the Kd in the test with BMP2 (Homo sapiens) [1] was 18000 nM; in test [2], 183 nM; in test [3], 172 nM.
In the case of CV2 ΔClip-SD1 (domain or fragment), the Kd in test [2] was 188 nM; in test [3] it was 170 nM.
As to CV2 ΔSD2 (domain or fragment), the Kd with BMP2 (Homo sapiens) [1] amounted to 22 nM.
On the same count and under the same terms, as for CV2-VWC1-3 (domain or fragment), the figure is 24 nM.
CV2-VWC1-5 (CV2-N) (domain or fragment): the Kd was determined as 25 nM in the test with BMP2 (Homo sapiens) [1], 170 nM in test [2] and 140 nM in test [3].
Chordin (from UniProt Q9H2X0): the Kd with BMP2 (Homo sapiens) [4] is 20 nM.
Regarding “Crossveinless-2 (CV2), full-length, zebrafish (natural protein)”, the figures for the Kd (with BMP2 (Homo sapiens) [1]; in test [2]; in test [3]) were 22 nM, 175 nM and 150 nM, respectively.
Consider “VWC2 domain of Chordin, mouse (domain or fragment)”, for which the Kd in test [5] was found to be 5 nM.

Values taken from publication PMC2944808.
